From US10172917B2, “Targeted oesophageal administration of ZN-α2-glycoproteins (ZAG), methods and formulations thereof” (ASTON UNIVERSITY, priority 2012, dated 2019)

Tests used:
ob/ob mice [1] = assay: Oral glucose tolerance test in ob/ob mice after 3 days of oral ZAG; format: in vivo, mouse
Method: Animals were grouped (n=5) to receive either ZAG/PBS (50 μg day^−1), or PBS in their drinking water, the experiment was repeated three times after a power analysis was performed. […] The ZAG was replaced every 48 h. One group of mice receiving ZAG were also administered propanolol (40 mgkg^−1, p.o.) daily. The dose of ZAG was chosen to be the same as that previously administered i.v. (1), so that a direct comparison could be made, between the two routes. Body weight, food and water intake, urinary glucose excretion, and body temperature, determined by the use of a rectal thermometer (RS Components, Northants, UK), were measured daily. A glucose tolerance test was performed on day 3. Animals were fasted for 12 h, followed by oral administration of glucose (1 gkg^−1 in a volume of 100 μl by gavage). Blood samples were removed from the tail vein at 15, 30, 60 and 120 min and used for the measurement of glucose. Urinary glucose was measured by collecting 0.5 ml urine and testing glucose concentration using a Boots glucose monitor. After 8 days of treatment the animals were terminated by cervical dislocation, tissues were removed and rapidly frozen in liquid nitrogen, and maintained at −80° C. […] Animal studies were conducted under Home Office Licence according to the UKCCCR Guidelines for the care and use of laboratory animals.

ob/ob mice [2] = assay: Serum metabolite and insulin levels in ob/ob mice after ZAG administration; format: in vivo, mouse; details: ob/ob mice after ZAG administration
Source text: FCS (foetal calf serum) was from Biosera (Sussex, UK), while DMEM (Dulbecco's modified Eagles Medium) was from PAA (Somerset, UK) and Freestyle medium was purchased from Invitrogen (Paisley, UK). Hybond A nitrocellulose membranes and peroxidise—conjugated rabbit anti-mouse antibody were from GE Healthcare (Bucks, UK), while enhanced chemiluminescene (ECL) development kits were purchased from Thermo Scientific (Northumberland, UK). Mouse monoclonal antibodies to full-length human and mouse ZAG were from Santa Cruz Biotechnology (Santa Cruz, Calif. A mouse insulin ELISA kit was purchased from DRG (Marburg, Germany) and glucose measurements in both urine and plasma were made using a Boots (Nottingham, UK) glucose kit. L-[U-^14C] tyrosine (sp.act 16.7 GBqmmol^−1) was purchased from Perkin Elmer Ltd, (Cambridge, UK), while 2-[1-^14C] deoxy-D-glucose (sp.act 1.85 GBqmmol^−1) was from American Radiolabeled Chemicals (Cardiff, UK).
Obese (ob/ob) mice (average weight 65 g) were bred in a colony, and were kept in an air conditioned room at 22+2° C. with ad libitum feeding of a rat and mouse breeding diet (Special Diet Services, Witham, UK) and tap water. […] Animals were grouped (n=5) to receive either ZAG/PBS (50 μg day^−1), or PBS in their drinking water, the experiment was repeated three times after a power analysis was performed. […] The ZAG was replaced every 48 h. One group of mice receiving ZAG were also administered propanolol (40 mgkg^−1, p.o.) daily. The dose of ZAG was chosen to be the same as that previously administered i.v. (1), so that a direct comparison could be made, between the two routes. Body weight, food and water intake, urinary glucose excretion, and body temperature, determined by the use of a rectal thermometer (RS Components, Northants, UK), were measured daily. A glucose tolerance test was performed on day 3. Animals were fasted for 12 h, followed by oral administration of glucose (1 gkg^−1 in a volume of 100 μl by gavage). Blood samples were removed from the tail vein at 15, 30, 60 and 120 min and used for the measurement of glucose. Urinary glucose was measured by collecting 0.5 ml urine and testing glucose concentration using a Boots glucose monitor. After 8 days of treatment the animals were terminated by cervical dislocation, tissues were removed and rapidly frozen in liquid nitrogen, and maintained at −80° C. Future work would be to repeat this work in diet-induced animals as alternative to a model with gene alteration, although previous studies have shown the ob/ob mouse to be a good indicator of potential human treatments. Animal studies were conducted under Home Office Licence according to the UKCCCR Guidelines for the care and use of laboratory animals.

human β2-AR = molecular target: T1, human β2-AR (Homo sapiens, UniProt P07550); assay: Cyclic AMP production in CHO cells transfected with human β2-AR; format: cell-based; details: 30 min incubation
T1 construct: expressed in transfected cells; host or cells: CHOK1 (CHO-K1) cells
Method: (§1) FIG. 3C is a graphical representation of the effect of a tryptic digest of ZAG in comparison with intact ZAG on cyclic AMP production by CHO cells transfected with human β1-AR (▪), β2-AR(□) and β3-AR) ( ? ) after 30 min incubation. ZAG (1 mg) was incubated with trypsin (200 μg) in 1 ml 10 mM Tris.HCl, pH8 for 4 h at 37° C. and proteolysis was terminated by addition of the trypsin inhibitor (200 μg). High molecular weight material was removed by a Sephadex G25 column followed by dialysis using an Amicon filtration cell containing a 10 kDa cut-off membrane filter.
(§2) CHOK1 cells transfected with human β1-, β2- and β3-AR were maintained in DMEM supplemented with 2 mM glutamine, hygromycin B (50 μgml^−1), G418 ([…]) and 10% FCS, under an atmosphere of 10% CO2 in air. For cyclic AMP production cells were grown in 24-well plates in 1 ml nutrient medium, and ZAG, after tryptic digestion as described in the legend to FIG. 3C, was incubated for 30 min. The medium was then removed and 0.5 ml of 20 mM HEPES, pH7.5, 5 mM EDTA and 0.1 mM isobutylmethylxanthine was added, followed by heating on a water bath for 5 min, and cooling on ice for 10 min. The concentration of cyclic AMP was determined using a Parameter cyclic AMP assay kit (New England Biolabs, Hitchin, Herts, UK).

β3-AR [3] = molecular target: T2, β3-AR (Homo sapiens, UniProt P13945); details: high affinity binding site on the β3-AR; previous studies; cited from earlier work
rats = rats treated with ZAG; cited from earlier work
BAT of ob/ob mice = details: ob/ob mice after ZAG administration; cited from earlier work
β3-AR [4] = molecular target: T2, β3-AR; assay: Cyclic AMP production in CHO cells transfected with human β3-AR; format: cell-based; design: expressed in transfected cells; host or cells: CHOK1 (CHO-K1) cells; details: 30 min incubation
Method: as §1, §2

T2 sequence (P13945 whole entry): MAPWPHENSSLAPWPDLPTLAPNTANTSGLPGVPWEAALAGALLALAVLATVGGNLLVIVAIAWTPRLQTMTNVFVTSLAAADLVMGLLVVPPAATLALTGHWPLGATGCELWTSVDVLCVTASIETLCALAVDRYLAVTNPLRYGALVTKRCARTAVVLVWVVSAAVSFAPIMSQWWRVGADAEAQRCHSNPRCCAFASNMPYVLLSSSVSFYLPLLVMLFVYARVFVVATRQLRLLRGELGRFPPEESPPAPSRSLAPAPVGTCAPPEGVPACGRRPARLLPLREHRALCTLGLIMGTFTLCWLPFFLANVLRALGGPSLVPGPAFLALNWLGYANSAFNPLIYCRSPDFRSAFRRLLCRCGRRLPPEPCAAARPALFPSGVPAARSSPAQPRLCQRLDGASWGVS

- cyclic AMP production (human β2-AR): stimulated
- cyclic AMP production (β3-AR [4]): stimulated
B1: zinc-α2-glycoprotein (protein, listed as Homo sapiens)
chain: QENQDGRYSLTYIYTGLSKHVEDVPAFQALGSLNDLQFFRYNSKDRKSQPMGLWRQVEGMEDWKEDSQLQKAREDMETLKDIVEYYNDSNGSHVLQGRFGCEIENNRSSGAFWKYYYDGKDYIEFNKEIPAWVPFDPAAQITKQKWEAEPVYVQRAKAYLEEECPATLRKYLKYSKNILDRQDPPSVVVTSHQAPGEKKKLKCLAYDFYPGKIDVHWTRAGQVQEPELRGDVLHNGNGTYQSWVVVAVPPQDTAPYSCHVQHSSLAQPLVVPWEAS
notes: Recombinant human ZAG, a 41 kDa protein, produced by HEK293F cells transfected with pcDNA3.1 containing human ZAG
- insulin response to the glucose challenge (ob/ob mice [1]; after 3 days of oral ZAG): decreased the insulin response
- peak blood glucose concentration in glucose tolerance test (ob/ob mice [1]; after 3 days of oral ZAG): reduced peak blood glucose concentration
- reduction in the total area under the curve (AUC) during oral glucose tolerance test (ob/ob mice [1]; after 3 days of oral ZAG, glucose 1 gkg^−1 po after 12 h fast): 33%
- sensitivity to insulin (ob/ob mice [1]; oral ZAG 50 μg day^−1): increased sensitivity to insulin
- serum glucose level (ob/ob mice [2]): decrease
- serum glycerol level (ob/ob mice [2]): elevation
- serum insulin level (ob/ob mice [2]): decrease
- serum non-esterified fatty acids (ob/ob mice [2]): decrease
- serum triglycerides (ob/ob mice [2]): decrease
- Bmax (β3-AR [3]): 282±1 fmole mg protein^−1
- Kd (β3-AR [3]): 78 ± 45 nM
- rise in body temperature (rats): 0.4 °C
- increase in oxygen uptake by BAT (BAT of ob/ob mice): three-fold
